Assays:
Experiment in all cases: cell-based or functional assay
[1] = biological target: SARS-CoV-2 spike protein, Beta (B.1.351) variant, on pseudovirus (SARS-CoV-2 (Beta variant))
[2] = biological target: SARS-CoV-2 spike protein, Omicron BA.4/BA.5 variants, on pseudovirus (SARS-CoV-2 (Omicron BA.4/BA.5 variants))
[3] = biological target: SARS-CoV-2 spike protein, Delta (B.1.617.2) variant, on pseudovirus (SARS-CoV-2 (Delta variant))
[4] = biological target: SARS-CoV-2 spike protein, Alpha (B.1.1.7) variant, on pseudovirus (SARS-CoV-2 (Alpha variant))
[5] = biological target: SARS-CoV-2 spike protein, Gamma (P.1) variant, on pseudovirus (SARS-CoV-2 (Gamma variant))
[6] = biological target: SARS-CoV-2 spike protein, Omicron BA.2 variant, on pseudovirus (SARS-CoV-2 (Omicron BA.2 variant))

Substance	IC50 (µg/ml), pseudotyped virus neutralization [1] [µg/mL]	IC50 (µg/ml), pseudotyped virus neutralization [2] [µg/mL]	IC50 (µg/ml), pseudotyped virus neutralization [3] [µg/mL]	IC50 (µg/ml), pseudotyped virus neutralization [4] [µg/mL]	IC50 (µg/ml), pseudotyped virus neutralization [5] [µg/mL]	IC50 (µg/ml), pseudotyped virus neutralization [6] [µg/mL]
S309 (antibody)	0.0043	0.142	0.0336	0.0347	0.0083	0.416
S2E12 (antibody)	< 0.0003	> 1	< 0.0003	0.0004	0.0003	0.137

Source: patent EP4349860A1
